# B1: His6-myc-tagged wild-type eIF2Bα [human] / myc-tagged eIF2Bγ [not stated] (parent)
# chain 1: MDDKELIEYFKSQMKEDPDMASAVAAIRTLLEFLKRDKGETIQGLRANLTSAIETLCGVDSSVAVSSGGELFLRFISLASLEYSDYSKCKKIMIERGELFLRRISLSRNKIADLCHTFIKDGATILTHAYSRVVLRVLEAAVAAKKRFSVYVTESQPDLSGKKMAKALCHLNVPVTVVLDAAVGYIMEKADLVIVGAEGVVENGGIINKIGTNQMAVCAKAQNKPFYVVAESFKFVRLFPLNQQDVPDKFKYKADTLKVAQTGQDLKEEHPWVDYTAPSLITLLFTDLGVLTPSAVSDELIKLYL
# chain 2: MEFQAVVMAVGGGSRMTDLTSSIPKPLLPVGNKPLIWYPLNLLERVGFEEVIVVTTRDVQKALCAEFKMKMKPDIVCIPDDADMGTADSLRYIYPKLKTDVLVLSCDLITDVALHEVVDLFRAYDASLAMLMRKGQDSIEPVPGQKGKKKAVEQRDFIGVDSTGKRLLFMANEADLDEELVIKGSILQKHPRIRFHTGLVDAHLYCLKKYIVDFLMENGSITSIRSELIPYLVRKQFSSASSQQGQEEKEEDLKKKELKSLDIYSFIKEANTLNLAPYDACWNACRGDRWEDLSRSQVRCYVHIMKEGLCSRVSTLGLYMEANRQVPKLLSALCPEEPPVHSSAQIVSKHLVGVDSLIGPETQIGEKSSIKRSVIGSSCLIKDRVTITNCLLMNSVTVEEGSNIQGSVICNNAVIEKGADIKDCLIGSGQRIEAKAKRVNEVIVGNDQLMEI
# B2: His6-myc-tagged wild-type eIF2Bα [human] / myc-tagged eIF2Bβ [not stated] (parent)
# chain 1: B1 chain 1
# chain 2: MPGSAAKGSELSERIESFVETLKRGGGPRSSEEMARETLGLLRQIITDHRWSNAGELMELIRREGRRMTAAQPSETTVGNMVRRVLKIIREEYGRLHGRSDESDQQESLHKLLTSGGLNEDFSFHYAQLQSNIIEAINELLVELEGTMENIAAQALEHIHSNEVIMTIGFSRTVEAFLKEAARKRKFHVIVAECAPFCQGHEMAVNLSKAGIETTVMTDAAIFAVMSRVNKVIIGTKTILANGALRAVTGTHTLALAAKHHSTPLIVCAPMFKLSPQFPNEEDSFHKFVAPEEVLPFTEGDILEKVSVHCPVFDYVPPELITLFISNIGGNAPSYIYRLMSELYHPDDHVL
# Variants of: B1
# Experiment: Ni2+ agarose affinity purification (pull-down), western blot for myc tag, quantified
# Conditions: with myc-tagged eIF2Bγ; HEK293 cell lysates; 3 independent experiments; read off a plot
row,Variant,ratio to parent
1,chain 1 P278R,0.95
2,chain 1 N208Y,1.2

# Variants of: B2
# Experiment: as above
# Conditions: with myc-tagged eIF2Bβ; HEK293 cell lysates; 3 independent experiments; read off a plot
row,Variant,ratio to parent
1,chain 1 N208Y,1
2,chain 1 P278R,0.66

# From article PMC4593227, “Biochemical effects of mutations in the gene encoding the alpha subunit of eukaryotic initiation factor (eIF) 2B associated with Vanishing White Matter disease” (BMC Medical Genetics, 2015)
